From patent CN116981688A (HELMHOLTZ ZENTRUM MUENCHEN DEUTSCHES FORSCHUNGSZENTRUM FUR …, dated 2023)

T1: 人PRDX4 (存在于癌细胞的细胞表面上) (human) (UniProt Q13162)
T1 sequence: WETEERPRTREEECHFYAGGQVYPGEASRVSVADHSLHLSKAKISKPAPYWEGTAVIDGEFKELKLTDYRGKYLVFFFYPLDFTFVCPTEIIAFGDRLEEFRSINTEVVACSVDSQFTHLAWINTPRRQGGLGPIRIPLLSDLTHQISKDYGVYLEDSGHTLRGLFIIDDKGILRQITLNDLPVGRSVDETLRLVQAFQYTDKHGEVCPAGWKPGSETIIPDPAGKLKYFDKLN

T2: PRDX4 (内源性, 细胞裂解物中) (human, UniProt Q13162 38-271)
T2 construct: Endogenous PRDX4 in RIPA lysates of human cell lines (ES-2 and others), precipitated with 11F2 beads; also called 内源性PRDX4
T2 sequence: T1 sequence

B1: 抗体11F2 (antibody, V domains shown)
VH: QVQLQQSGAELVKPGTSVKLSCKASGYTFSTHHMHWIKETTGQGLEWIGIINPGNGGTKYNVKFKGKATLTVDSSSSTAFMQLGSLTPEDSAVYYCARGNPASFDYWGQGVMVTVSS
VL: DIQMTQSPSFLSASVGDRVTINCKASQNIYKYLNWYQQKLGEAPKRLIYNTNNLETDIPSRFSGSGSGTDYTFTISSLQPEDFATYFCLQHSNFPFTFGSGTKLEIKR
notes: Monoclonal antibody detected with goat anti-rat IgG secondary antibody, so rat constant regions; also called PRDX4特异性抗体11F2; PRDX4抗体11F2

Legend:
[1] = target: T1, 人PRDX4 (存在于癌细胞的细胞表面上) (human); experiment: flow cytometry on ES-2 cells, isotype control
[2] = target: T1, 人PRDX4 (存在于癌细胞的细胞表面上) (human); experiment: flow cytometry on ES-2w cells transfected with control siRNA
PRDX4 (内源性, 细胞裂解物中) = target: T2, PRDX4 (内源性, 细胞裂解物中); experiment: immunoprecipitation with 11F2 beads from ES-2 lysate, western blot
[3] = target: T1, 人PRDX4 (存在于癌细胞的细胞表面上) (human); experiment: flow cytometry on ES-2 cells transfected with PRDX4-specific siRNA (population 4BC_KO)
[4] = target: T1, 人PRDX4 (存在于癌细胞的细胞表面上) (human); experiment: flow cytometry on ES-2 cells with PRDX4-specific siRNA (4BC_KO) against control siRNA cells

Molecule	平均值 (mean fluorescence) [1]	平均值 (mean fluorescence) [2]	binding result (PRDX4 (内源性, 细胞裂解物中))	平均值 (mean fluorescence) [3]	percent of 11F2 binding against control siRNA cells [4] [%]
同种型抗体 (antibody)	159				
B1		1910	binds	874	50
